Laboratory results: patent US20250326848A1

How the values were obtained:
[1] = target: human CD47 on primary human red blood cells (human) (UniProt Q08722); assay: FACS, whole cell binding to primary human red blood cells, Donor2
[2] = target: human CD47 on Jurkat cells (human) (UniProt Q08722); assay: FACS, whole cell binding to Jurkat cells; middle panel 'Anti-CD47 whole cell binding to Jurkat', nM is from the axis 'Conc(nM)'
[3] = target: human CD47 on primary human red blood cells (human) (UniProt Q08722); assay: FACS, whole cell binding to primary human red blood cells, Donor1
[4] = target: human CD47 on primary human platelets (human) (UniProt Q08722); assay: FACS, binding to primary human platelets, donor 2
[5] = target: human CD47 on primary human platelets (human) (UniProt Q08722); assay: FACS, binding to primary human platelets, donor1
[6] = target: human CD47 on Jurkat cells (human) (UniProt Q08722); assay: FACS, whole cell binding to Jurkat cells; top panel 'HLX305 Binding to CD47+ Jurkat Cells'; fit value given for a flat control curve; nM is from the axis
[7] = target: human CD47 on Jurkat cells (human) (UniProt Q08722); assay: FACS, whole cell binding to Jurkat cells; middle panel 'Anti-CD47 whole cell binding to Jurkat'; fit value given for a flat control curve; nM is from the axis
[8] = target: human CD47 on Jurkat cells (human) (UniProt Q08722); assay: FACS, whole cell binding to Jurkat cells; bottom panel 'Anti-CD47 Binding to CD47+ cells'; fit value printed for the control curve; nM is from the axis
[9] = target: human CD47 on Jurkat cells (human) (UniProt Q08722); assay: FACS, whole cell binding to Jurkat cells; bottom panel 'Anti-CD47 Binding to CD47+ cells', nM is from the axis 'Conc. (nM)'
[10] = target: human PDL1 expressed on CHO cells (human) (UniProt Q9NZQ7)
Chain of human PDL1 expressed on CHO cells (human) (Q9NZQ7 19-290 limits assumed): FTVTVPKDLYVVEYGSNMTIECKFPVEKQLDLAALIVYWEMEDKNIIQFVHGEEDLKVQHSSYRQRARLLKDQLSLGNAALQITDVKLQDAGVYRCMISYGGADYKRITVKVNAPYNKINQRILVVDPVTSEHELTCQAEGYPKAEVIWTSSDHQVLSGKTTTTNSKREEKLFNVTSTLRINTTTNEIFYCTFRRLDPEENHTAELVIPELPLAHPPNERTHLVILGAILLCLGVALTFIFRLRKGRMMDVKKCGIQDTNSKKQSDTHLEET

## IBI322 analog (anti-PDL1/CD47 antibody of US 20220227870 A1, synthesized in-house) (bispecific antibody)
[1]
  EC50 (read off the curve): 2 nM
[2]
  EC50: 0.682 nM
[3]
  EC50 (read off the curve): 2 nM
[4]
  EC50 (read off the curve): 0.8 nM
[5]
  EC50 (read off the curve): 1 nM

## IgG isotype antibody (negative control)
[6]
  EC50: 6.73 nM
[7]
  EC50: 0.00976 nM
[8]
  EC50: 50 nM

## PF-07257876 analog (anti-PDL1/CD47 antibody of US 20210179716 A1, synthesized in-house) (bispecific antibody)
[9]
  EC50: 8.29 nM

## Reference Ab 1 (analog of MPDL3280A, synthesized in-house from WO2016007235A1) (antibody)
[10]
  EC50; whole cell PDL1/PD1 blocking assay, NFAT luciferase reporter (RLU): 0.0532 nM
